Measured values taken from PMC5378893 (Scientific Reports, 2015).

Key:
[1] = target: T1, extracellular domain (ECD) of human epidermal growth factor receptor 2 (HER2) (Homo sapiens, UniProt P04626); test: competition binding assay; competition of S90 scFvs with IgGs (six mouse IgGs, four positive control IgGs) for binding to HER2/ECD; procedure in the Supplemental Experimental Procedures
T1 construct: human epidermal growth factor receptor 2 (HER2), extracellular domain (domains I-IV); also called HER2/ECD

[2] = target: T2, extracellular domain (ECD) of human epidermal growth factor receptor 2 (HER2) (Homo sapiens, UniProt P04626); test: SPR; BIAcore T200; HER2/ECD immobilised on a CM5 chip by amine coupling to 1000 RU; IgG flowed in PBST (0.05% Tween 20) at 30 uL/min; regeneration 10 mM glycine pH 1.5; global fit to a 1:1 binding model; conditions: both partners purified
T2 construct: human epidermal growth factor receptor 2 (HER2), extracellular domain; also called HER2/ECD

Row | Binder | binding result [1] | Kd [2] [nM] | koff [2] [s⁻¹] | kon [2] [M⁻¹ s⁻¹]
1 | Fab37 (positive control IgG) (antibody, V domains shown) VH: EVQLVESGGGLVQPGGSLRLSCAASGFSIWWSWIHWVRQAPGKGLEWVASISPSSGWTSYADSVKGRFTISADTSKNTAYLQMNSLRAEDTAVYYCARWWSSAMDYWGQGTLVTVSS VL: DIQMTQSPSSLSASVGDRVTITCRASQSVSSAVAWYQQKPGKAPKLLIYSASSLYSGVPSRFSGSRSGTDFTLTISSLQPEDFATYYCQQWWWWPSTFGQGTKVEIK | binds | – | – | –
2 | GH2-66 IgG (antibody, V domains shown, source: HEK293-F, transient transfection, purified (Protein A, Superdex 200)) VH: EVQLVESGGGLVQPGGSLRLSCAASGFTIGNWGIHWVRQAPGKGLEWVAYIWPYWGFTYYADSVKGRFTISADTSKNTAYLQMNSLRAEDTAVYYCARFLDWNLLWMDYWGQGTLVTVSS VL: DIQMTQSPSSLSASVGDRVTITCRASQDVYSYVAWYQQKPGKAPKLLISYASGLYSGVPSRFSGSGSGTDFTLTISSLQPEDFATYYCQQYYNSPITFGQGTKVEIK | – | 54.5 | 0.328 | 6.03e+06
3 | GH2-78 IgG (antibody, V domains shown, source: HEK293-F, transient transfection, purified (Protein A, Superdex 200)) VH: EVQLVESGGGLVQPGGSLRLSCAASGFTINNWGIHWVRQAPGKGLEWVAGIGPYGGYTSYADSVKGRFTISADTSKNTAYLQMNSLRAEDTAVYYCARFGVIIDGIMDYWGQGTLVTVSS VL: DIQMTQSPSSLSASVGDRVTITCRASQDVNNSVAWYQQKPGKAPKLLISWPTGLYSGVPSRFSGSGSGTDFTLTISSLQPEDFATYYCQQYYSWPITFGQGTKVEIK | – | 49.4 | 0.00163 | 33000
4 | GH2-81 IgG (antibody, V domains shown, source: HEK293-F, transient transfection, purified (Protein A, Superdex 200)) VH: EVQLVESGGGLVQPGGSLRLSCAASGFTINDYGIHWVRQAPGKGLEWVAGIGPFGGYTSYADSVKGRFTISADTSKNTAYLQMNSLRAEDTAVYYCARFGVLFDGVMDYWGQGTLVTVSS VL: DIQMTQSPSSLSASVGDRVTITCRASQDVNDGVAWYQQKPGKAPKLLISFTTGLYSGVPSRFSGSGSGTDFTLTISSLQPEDFATYYCQQYYNWPITFGQGTKVEIK | – | 13.4 | 0.0131 | 975000
5 | GH2-65 IgG (antibody, V domains shown, source: HEK293-F, transient transfection, purified (Protein A, Superdex 200)) VH: EVQLVESGGGLVQPGGSLRLSCAASGFTIDDWGIHWVRQAPGKGLEWVAWIWPYWGYTFYADSVKGRFTISADTSKNTAYLQMNSLRAEDTAVYYCARFLDWNNNWMDYWGQGTLVTVSS VL: DIQMTQSPSSLSASVGDRVTITCRASQDVSGWVAWYQQKPGKAPKLLISSASFLYSGVPSRFSGSGSGTDFTLTISSLQPEDFATYYCQQYYDFPVTFGQGTKVEIK | – | 31.8 | 0.0111 | 350000
6 | A21 (positive control IgG) (antibody, V domains shown, Positive control IgG; also called Antibody A21) VH: EVQLQQSGPEVVKTGASVKISCKASGYSFTGYFINWVKKNSGKSPEWIGHISSSYATSTYNQKFKNKAAFTVDTSSSTAFMQLNSLTSEDSAVYYCVRSGNYEEYAMDYWGQGTSVTVSS VL: DIVLTQTPSSLPVSVGEKVTMTCKSSQTLLYSNNQKNYLAWYQQKPGQSPKLLISWAFTRKSGVPDRFTGSGSGTDFTLTIGSVKAEDLAVYYCQQYSNYPWTFGGGTRLEIK | binds | – | – | –

Further lines, results first:

Row | binding result [1] | Kd [2] [nM] | koff [2] [s⁻¹] | kon [2] [M⁻¹ s⁻¹] | Binder
7 | – | 0.177 | 0.000149 | 840000 | GH2-75 IgG (antibody, V domains shown, source: HEK293-F, transient transfection, purified (Protein A, Superdex 200)) VH: EVQLVESGGGLVQPGGSLRLSCAASGSTIGNSGIHWVRQAPGKGLEWVAYIGPYGGYTSYADSVKGRFTISADTSKNTAYLQMNSLRAEDTAVYYCARFDDYHWDGMDYWGQGTLVTVSS VL: DIQMTQSPSSLSASVGDRVIITCRASQDVSGYVAWYQQKPGKAPKLLIYSSGVPSRFSGSGSGTDFTLTISSLQPEDFATYYCQQYYNWPVTFGQGTKVEIK
8 | – | 0.27 | 0.000104 | 387000 | GH2-61 IgG (antibody, V domains shown, source: HEK293-F, transient transfection, purified (Protein A, Superdex 200)) VH: EVQLVESGGGLVQPGGSLRLSCAASGFTINNWGIHWVRQAPGKGLEWVAGIWPYGGYTYYADSVKGRFTISADTSKNTAYLQMNSLRAEDTAVYYCARFYNHHGGVMDYWGQGTLVTVSS VL: DIQMTQSPSSLSASVGDRVTITCRASQDVGSNVAWYQQKPGKAPKLLISWSTSLYSGVPSRFSGSGSGTDFTLTISSLQPEDFATYYCQQYGGWPITFGQGTKVEIK
9 | – | 2.47 | 0.00679 | 2.75e+06 | GH2-91 IgG (antibody, V domains shown, source: HEK293-F, transient transfection, purified (Protein A, Superdex 200)) VH: EVQLVESGGGLVQPGGSLRLSCAASGFTINNFGIHWVRQAPGKGLEWVASIGPFWGYTSYADSVKGRFTISADTSKNTAYLQMNSLRAEDTAVYYCARFGNDYDGVMDYWGQGTLVTVSS VL: DIQMTQSPSSLSASVGDRVTITCRASHDVGWGVAWYQQKPGKAPKLLISWPTYLYSGVPSRFSGSGSGTDFTLTISSLQPEDFATYYCQQYFSYPITFGQGTKVEIK
10 | – | 9.84 | 0.0608 | 6.18e+06 | GH2-7 IgG (antibody, V domains shown, source: HEK293-F, transient transfection, purified (Protein A, Superdex 200)) VH: EVQLVESGGGLVQPGGSLRLSCAASGFTIDDYFIHWVRQAPGKGLEWVAGIGPSWGYTFYADSVKGRFTISADTSKNTAYLQMNSLRAEDTAVYYCARFGHNFVNGMDYWGQGTLVTVSS VL: DIQMTQSPSSLSASVGDRVTITCRASQDVSGWVAWYQQKPGKAPKLLISGTAGLYSGVPSRFSGSGSGTDFTLTISSLQPEDFATYYCQQYYDFPVTFGQGTKVEIK
11 | – | 11.9 | 10.9 | 9.15e+08 | GH2-72 IgG (antibody, V domains shown, source: HEK293-F, transient transfection, purified (Protein A, Superdex 200)) VH: EVQLVESGGGLVQPGGSLRLSCAASGFTISNGGIHWVRQAPGKGLEWVAYIWPSGGYTFYADSVKGRFTISADTSKNTAYLQMNSLRAEDTAVYYCARFFNNDWIGMDYWGQGTLVTVSS VL: DIQMTQSPSSLSASVGDRVTITCRASQDVGYFVAWYQQKPGKAPKLLISGTTWLYSGVPSRFSGSGSGTDFTLTISSLQPEDFATYYCQQYSNWPLTFGQGTKVEIK
12 | – | 13.3 | 0.00525 | 395000 | GH2-87 IgG (antibody, V domains shown, source: HEK293-F, transient transfection, purified (Protein A, Superdex 200)) VH: EVQLVESGGGLVQPGGSLRLSCAASGFTISSYGIHWVRQAPGKGLEWVAGIGPFGGFTSYADSVKGRFTISADTSKNTAYLQMNSLRAEDTAVYYCARFLNIHLGWMDYWGQGTLVTVSS VL: DIQMTQSPSSLSASVGDRVTITCRASQDVNNSVAWYQQKPGKAPKLLIFGTRYLYSGVPSRFSGSGSGTDFTLTISSLQPEDFATYYCQQYYNYPLTFGQGTKVEIK
